Measured values from patent publication US20220010021A1 (Sanofi, published 2022).

What was measured:
[1] = biological target: human FGFR1c/KLB cell surface receptor complex on iLite FGF21 reporter cells (human, UniProt P11362 22-822; Q86Z14 1-1044); assay: cell-based or functional assay; for Mean E max (%): reference of the scale not given here
human beta-Klotho (KLB) = biological target: T1, human beta-Klotho (KLB) (human, UniProt Q86Z14 53-997); assay: BLI off-rate screen (Octet), Ab captured via Fc;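 note: antibody supernatants applied at 25 µg/mL, dissociation monitored over 1800 s in D-PBS with 0.1% BSA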
T1 construct: also called human KLB
T1 sequence (looked up): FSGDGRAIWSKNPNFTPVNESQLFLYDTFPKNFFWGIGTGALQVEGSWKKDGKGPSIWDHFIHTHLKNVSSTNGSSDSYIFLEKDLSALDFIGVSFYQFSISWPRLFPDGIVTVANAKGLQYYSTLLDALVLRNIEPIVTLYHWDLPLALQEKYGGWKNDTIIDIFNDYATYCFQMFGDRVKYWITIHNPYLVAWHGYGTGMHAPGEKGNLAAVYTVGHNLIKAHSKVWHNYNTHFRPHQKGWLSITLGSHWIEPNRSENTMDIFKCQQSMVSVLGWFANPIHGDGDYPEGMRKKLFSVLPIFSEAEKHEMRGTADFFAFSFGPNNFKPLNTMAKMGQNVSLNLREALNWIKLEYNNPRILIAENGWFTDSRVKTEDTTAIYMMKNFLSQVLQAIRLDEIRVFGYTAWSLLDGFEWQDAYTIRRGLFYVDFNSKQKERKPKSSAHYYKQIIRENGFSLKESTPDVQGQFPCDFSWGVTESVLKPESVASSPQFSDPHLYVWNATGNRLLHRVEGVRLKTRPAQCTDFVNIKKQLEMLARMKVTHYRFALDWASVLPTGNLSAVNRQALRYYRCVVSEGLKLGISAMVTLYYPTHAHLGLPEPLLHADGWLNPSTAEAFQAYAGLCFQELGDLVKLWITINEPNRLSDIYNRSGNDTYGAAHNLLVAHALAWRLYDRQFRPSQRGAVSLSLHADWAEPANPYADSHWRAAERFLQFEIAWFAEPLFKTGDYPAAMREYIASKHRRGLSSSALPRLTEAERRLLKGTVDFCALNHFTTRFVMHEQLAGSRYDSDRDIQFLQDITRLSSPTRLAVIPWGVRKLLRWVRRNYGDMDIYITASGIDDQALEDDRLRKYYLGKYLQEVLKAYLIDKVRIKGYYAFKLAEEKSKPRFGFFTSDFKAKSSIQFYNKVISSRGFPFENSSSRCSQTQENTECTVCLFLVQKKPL

human FGFR1c/KLB cell surface receptor complex on iLite FGF21 reporter cells, sequence (P11362 22-822, chain 1 of 2): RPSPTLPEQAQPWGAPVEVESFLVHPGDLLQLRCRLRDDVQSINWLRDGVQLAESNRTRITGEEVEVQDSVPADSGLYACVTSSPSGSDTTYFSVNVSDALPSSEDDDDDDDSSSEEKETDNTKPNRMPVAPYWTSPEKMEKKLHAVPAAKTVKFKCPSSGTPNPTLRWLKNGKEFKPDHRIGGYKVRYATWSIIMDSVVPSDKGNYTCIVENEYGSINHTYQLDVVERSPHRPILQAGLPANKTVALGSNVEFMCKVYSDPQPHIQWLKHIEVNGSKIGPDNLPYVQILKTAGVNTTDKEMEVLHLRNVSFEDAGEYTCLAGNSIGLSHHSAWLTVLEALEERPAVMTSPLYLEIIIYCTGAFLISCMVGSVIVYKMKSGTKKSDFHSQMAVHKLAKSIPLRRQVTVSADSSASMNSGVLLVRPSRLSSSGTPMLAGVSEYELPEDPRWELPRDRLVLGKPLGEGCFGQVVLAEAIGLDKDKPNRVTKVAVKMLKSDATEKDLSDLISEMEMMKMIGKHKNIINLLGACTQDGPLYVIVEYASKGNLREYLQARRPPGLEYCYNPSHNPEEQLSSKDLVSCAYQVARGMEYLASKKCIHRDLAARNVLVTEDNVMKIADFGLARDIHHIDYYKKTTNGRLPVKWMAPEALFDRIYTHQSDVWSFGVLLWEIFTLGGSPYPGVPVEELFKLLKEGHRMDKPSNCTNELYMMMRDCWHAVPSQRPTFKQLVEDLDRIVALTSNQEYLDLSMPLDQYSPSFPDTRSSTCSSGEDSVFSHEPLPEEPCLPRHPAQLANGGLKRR
human FGFR1c/KLB cell surface receptor complex on iLite FGF21 reporter cells, sequence (Q86Z14 whole entry, chain 2 of 2): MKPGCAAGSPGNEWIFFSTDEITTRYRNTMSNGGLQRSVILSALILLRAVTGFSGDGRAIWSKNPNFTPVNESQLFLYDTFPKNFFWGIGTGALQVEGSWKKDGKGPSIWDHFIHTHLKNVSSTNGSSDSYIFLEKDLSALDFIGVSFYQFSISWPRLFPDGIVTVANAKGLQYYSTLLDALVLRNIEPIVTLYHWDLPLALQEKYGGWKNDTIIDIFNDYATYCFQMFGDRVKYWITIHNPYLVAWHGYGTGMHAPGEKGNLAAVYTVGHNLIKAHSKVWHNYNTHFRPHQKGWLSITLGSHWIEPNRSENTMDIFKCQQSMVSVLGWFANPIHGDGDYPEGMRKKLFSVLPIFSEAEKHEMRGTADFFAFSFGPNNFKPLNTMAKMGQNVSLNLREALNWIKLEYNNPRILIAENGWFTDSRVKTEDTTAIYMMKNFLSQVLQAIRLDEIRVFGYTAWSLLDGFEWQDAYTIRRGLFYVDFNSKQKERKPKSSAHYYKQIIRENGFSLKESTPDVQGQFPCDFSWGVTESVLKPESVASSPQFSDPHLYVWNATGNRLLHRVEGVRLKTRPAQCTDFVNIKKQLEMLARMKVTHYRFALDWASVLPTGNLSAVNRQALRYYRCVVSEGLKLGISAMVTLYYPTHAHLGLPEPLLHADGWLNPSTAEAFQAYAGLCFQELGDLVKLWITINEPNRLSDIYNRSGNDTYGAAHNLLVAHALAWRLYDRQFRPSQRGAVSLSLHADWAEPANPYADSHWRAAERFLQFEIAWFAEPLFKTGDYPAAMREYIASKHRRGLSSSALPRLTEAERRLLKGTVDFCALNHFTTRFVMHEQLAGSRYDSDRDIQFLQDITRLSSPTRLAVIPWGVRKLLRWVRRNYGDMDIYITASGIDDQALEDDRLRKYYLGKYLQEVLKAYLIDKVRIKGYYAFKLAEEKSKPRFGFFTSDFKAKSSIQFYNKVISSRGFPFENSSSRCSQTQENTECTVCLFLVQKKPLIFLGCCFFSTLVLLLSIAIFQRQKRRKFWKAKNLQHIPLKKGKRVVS

B1: 16H7 variant, light chain G24S (antibody, human IgG4 S228P, lambda, V domains shown)
VH: not shown
VL: SYVLTQPPSVSVAPGQTARITCGSNNIGSESVHWYQQKPGQAPVLVVYDDSDRPSGIPERFSGSNSGNTATLTISRVEAGDEADYYCQVWDGNSDHVVFGGGTKLTVLG
notes: IgG4 backbone
Mean E max (%) [1]: 121%
Mean EC50 [1]: 0.135 nM
koff (human beta-Klotho (KLB)): 8.3e-06 s⁻¹

B2: 16H7 variant, light chain N25M (antibody, human IgG4 S228P, lambda, V domains shown)
VH: not shown
VL: SYVLTQPPSVSVAPGQTARITCGGMNIGSESVHWYQQKPGQAPVLVVYDDSDRPSGIPERFSGSNSGNTATLTISRVEAGDEADYYCQVWDGNSDHVVFGGGTKLTVLG
notes: IgG4 backbone
Mean E max (%) [1]: 102%
Mean EC50 [1]: 0.131 nM
koff (human beta-Klotho (KLB)): 3.1e-06 s⁻¹

B3: 16H7 variant, light chain N25P (antibody, human IgG4 S228P, lambda, V domains shown)
VH: not shown
VL: SYVLTQPPSVSVAPGQTARITCGGPNIGSESVHWYQQKPGQAPVLVVYDDSDRPSGIPERFSGSNSGNTATLTISRVEAGDEADYYCQVWDGNSDHVVFGGGTKLTVLG
notes: IgG4 backbone
Mean E max (%) [1]: 106%
Mean EC50 [1]: 0.132 nM
koff (human beta-Klotho (KLB)): 1.2e-05 s⁻¹

B4: 16H7 variant, light chain N25C (antibody, human IgG4 S228P, lambda, V domains shown)
VH: not shown
VL: SYVLTQPPSVSVAPGQTARITCGGCNIGSESVHWYQQKPGQAPVLVVYDDSDRPSGIPERFSGSNSGNTATLTISRVEAGDEADYYCQVWDGNSDHVVFGGGTKLTVLG
notes: IgG4 backbone
Mean E max (%) [1]: 110%
Mean EC50 [1]: 0.133 nM
koff (human beta-Klotho (KLB)): 3.6e-06 s⁻¹

B5: 16H7 variant, light chain G24W (antibody, human IgG4 S228P, lambda, V domains shown)
VH: not shown
VL: SYVLTQPPSVSVAPGQTARITCGWNNIGSESVHWYQQKPGQAPVLVVYDDSDRPSGIPERFSGSNSGNTATLTISRVEAGDEADYYCQVWDGNSDHVVFGGGTKLTVLG
notes: IgG4 backbone
Mean E max (%) [1]: 110%
Mean EC50 [1]: 0.145 nM
koff (human beta-Klotho (KLB)): 3.7e-05 s⁻¹

B6: 16H7 variant, light chain I27G (antibody, IgG4, V domains shown)
VH: not shown
VL: SYVLTQPPSVSVAPGQTARITCGGNNGGSESVHWYQQKPGQAPVLVVYDDSDRPSGIPERFSGSNSGNTATLTISRVEAGDEADYYCQVWDGNSDHVVFGGGTKLTVLG
notes: IgG4 backbone; copies: 2 + 2
Mean E max (%) [1]: 111%
Mean EC50 [1]: 0.123 nM
koff (human beta-Klotho (KLB)): 3e-05 s⁻¹

B7: 16H7 variant, light chain I27K (antibody, IgG4, V domains shown)
VH: not shown
VL: SYVLTQPPSVSVAPGQTARITCGGNNKGSESVHWYQQKPGQAPVLVVYDDSDRPSGIPERFSGSNSGNTATLTISRVEAGDEADYYCQVWDGNSDHVVFGGGTKLTVLG
notes: IgG4 backbone; copies: 2 + 2
Mean E max (%) [1]: 99%
Mean EC50 [1]: 0.127 nM
koff (human beta-Klotho (KLB)): 5.3e-05 s⁻¹

B8: 16H7 variant, light chain I27D (antibody, human IgG4 S228P, lambda, V domains shown)
VH: not shown
VL: SYVLTQPPSVSVAPGQTARITCGGNNDGSESVHWYQQKPGQAPVLVVYDDSDRPSGIPERFSGSNSGNTATLTISRVEAGDEADYYCQVWDGNSDHVVFGGGTKLTVLG
notes: IgG4 backbone
Mean E max (%) [1]: 107%
Mean EC50 [1]: 0.107 nM
koff (human beta-Klotho (KLB)): 4.6e-05 s⁻¹

B9: 16H7 variant, light chain N25E (antibody, human IgG4 S228P, lambda, V domains shown)
VH: not shown
VL: SYVLTQPPSVSVAPGQTARITCGGENIGSESVHWYQQKPGQAPVLVVYDDSDRPSGIPERFSGSNSGNTATLTISRVEAGDEADYYCQVWDGNSDHVVFGGGTKLTVLG
notes: IgG4 backbone
Mean E max (%) [1]: 106%
Mean EC50 [1]: 0.107 nM
koff (human beta-Klotho (KLB)): 3e-05 s⁻¹

B10: 16H7 variant, light chain N25I (antibody, human IgG4 S228P, lambda, V domains shown)
VH: not shown
VL: SYVLTQPPSVSVAPGQTARITCGGINIGSESVHWYQQKPGQAPVLVVYDDSDRPSGIPERFSGSNSGNTATLTISRVEAGDEADYYCQVWDGNSDHVVFGGGTKLTVLG
notes: IgG4 backbone
Mean E max (%) [1]: 104%
Mean EC50 [1]: 0.122 nM
koff (human beta-Klotho (KLB)): 2.2e-05 s⁻¹

B11: 16H7 variant, light chain N25Q (antibody, human IgG4 S228P, lambda, V domains shown)
VH: not shown
VL: SYVLTQPPSVSVAPGQTARITCGGQNIGSESVHWYQQKPGQAPVLVVYDDSDRPSGIPERFSGSNSGNTATLTISRVEAGDEADYYCQVWDGNSDHVVFGGGTKLTVLG
notes: IgG4 backbone
Mean E max (%) [1]: 102%
Mean EC50 [1]: 0.096 nM
koff (human beta-Klotho (KLB)): 1e-07 s⁻¹

B12: 16H7 variant, light chain N25K (antibody, human IgG4 S228P, lambda, V domains shown)
VH: not shown
VL: SYVLTQPPSVSVAPGQTARITCGGKNIGSESVHWYQQKPGQAPVLVVYDDSDRPSGIPERFSGSNSGNTATLTISRVEAGDEADYYCQVWDGNSDHVVFGGGTKLTVLG
notes: IgG4 backbone
Mean E max (%) [1]: 110%
Mean EC50 [1]: 0.182 nM
koff (human beta-Klotho (KLB)): 3.3e-05 s⁻¹

B13: 16H7 variant, light chain I27S (antibody, human IgG4 S228P, lambda, V domains shown)
VH: not shown
VL: SYVLTQPPSVSVAPGQTARITCGGNNSGSESVHWYQQKPGQAPVLVVYDDSDRPSGIPERFSGSNSGNTATLTISRVEAGDEADYYCQVWDGNSDHVVFGGGTKLTVLG
notes: IgG4 backbone
Mean E max (%) [1]: 106%
Mean EC50 [1]: 0.141 nM
koff (human beta-Klotho (KLB)): 4.9e-05 s⁻¹

B14: 16H7 variant, light chain N25A (antibody, human IgG4 S228P, lambda, V domains shown)
VH: not shown
VL: SYVLTQPPSVSVAPGQTARITCGGANIGSESVHWYQQKPGQAPVLVVYDDSDRPSGIPERFSGSNSGNTATLTISRVEAGDEADYYCQVWDGNSDHVVFGGGTKLTVLG
notes: IgG4 backbone
Mean E max (%) [1]: 96%
Mean EC50 [1]: 0.081 nM
koff (human beta-Klotho (KLB)): 1.6e-05 s⁻¹

B15: 16H7 variant, light chain N25H (antibody, human IgG4 S228P, lambda, V domains shown)
VH: not shown
VL: SYVLTQPPSVSVAPGQTARITCGGHNIGSESVHWYQQKPGQAPVLVVYDDSDRPSGIPERFSGSNSGNTATLTISRVEAGDEADYYCQVWDGNSDHVVFGGGTKLTVLG
notes: IgG4 backbone
Mean E max (%) [1]: 106%
Mean EC50 [1]: 0.137 nM
koff (human beta-Klotho (KLB)): 3e-05 s⁻¹

B16: 16H7 variant, light chain N25L (antibody, human IgG4 S228P, lambda, V domains shown)
VH: not shown
VL: SYVLTQPPSVSVAPGQTARITCGGLNIGSESVHWYQQKPGQAPVLVVYDDSDRPSGIPERFSGSNSGNTATLTISRVEAGDEADYYCQVWDGNSDHVVFGGGTKLTVLG
notes: IgG4 backbone
Mean E max (%) [1]: 109%
Mean EC50 [1]: 0.134 nM
koff (human beta-Klotho (KLB)): 1.2e-05 s⁻¹

B17: 16H7 variant, light chain G24V (antibody, human IgG4 S228P, lambda, V domains shown)
VH: not shown
VL: SYVLTQPPSVSVAPGQTARITCGVNNIGSESVHWYQQKPGQAPVLVVYDDSDRPSGIPERFSGSNSGNTATLTISRVEAGDEADYYCQVWDGNSDHVVFGGGTKLTVLG
notes: IgG4 backbone
Mean E max (%) [1]: 102%
Mean EC50 [1]: 0.125 nM
koff (human beta-Klotho (KLB)): 8.5e-05 s⁻¹

B18: 16H7 variant, light chain N25R (antibody, human IgG4 S228P, lambda, V domains shown)
VH: not shown
VL: SYVLTQPPSVSVAPGQTARITCGGRNIGSESVHWYQQKPGQAPVLVVYDDSDRPSGIPERFSGSNSGNTATLTISRVEAGDEADYYCQVWDGNSDHVVFGGGTKLTVLG
notes: IgG4 backbone
Mean E max (%) [1]: 104%
Mean EC50 [1]: 0.178 nM
koff (human beta-Klotho (KLB)): 4.1e-05 s⁻¹

B19: 16H7 variant, light chain G24T (antibody, human IgG4 S228P, lambda, V domains shown)
VH: not shown
VL: SYVLTQPPSVSVAPGQTARITCGTNNIGSESVHWYQQKPGQAPVLVVYDDSDRPSGIPERFSGSNSGNTATLTISRVEAGDEADYYCQVWDGNSDHVVFGGGTKLTVLG
notes: IgG4 backbone
Mean E max (%) [1]: 106%
Mean EC50 [1]: 0.139 nM
koff (human beta-Klotho (KLB)): 6.9e-05 s⁻¹

B20: 16H7 variant, light chain G24Y (antibody, human IgG4 S228P, lambda, V domains shown)
VH: not shown
VL: SYVLTQPPSVSVAPGQTARITCGYNNIGSESVHWYQQKPGQAPVLVVYDDSDRPSGIPERFSGSNSGNTATLTISRVEAGDEADYYCQVWDGNSDHVVFGGGTKLTVLG
notes: IgG4 backbone
Mean E max (%) [1]: 107%
Mean EC50 [1]: 0.137 nM
koff (human beta-Klotho (KLB)): 4.1e-05 s⁻¹

B21: 16H7 variant, light chain I27L (antibody, IgG4, V domains shown)
VH: not shown
VL: SYVLTQPPSVSVAPGQTARITCGGNNLGSESVHWYQQKPGQAPVLVVYDDSDRPSGIPERFSGSNSGNTATLTISRVEAGDEADYYCQVWDGNSDHVVFGGGTKLTVLG
notes: IgG4 backbone; copies: 2 + 2
Mean E max (%) [1]: 110%
Mean EC50 [1]: 0.124 nM
koff (human beta-Klotho (KLB)): 6.2e-05 s⁻¹

B22: 16H7 variant, light chain N25G (antibody, human IgG4 S228P, lambda, V domains shown)
VH: not shown
VL: SYVLTQPPSVSVAPGQTARITCGGGNIGSESVHWYQQKPGQAPVLVVYDDSDRPSGIPERFSGSNSGNTATLTISRVEAGDEADYYCQVWDGNSDHVVFGGGTKLTVLG
notes: IgG4 backbone
Mean E max (%) [1]: 100%
Mean EC50 [1]: 0.118 nM
koff (human beta-Klotho (KLB)): 3.2e-05 s⁻¹

B23: 16H7 variant, light chain I27E (antibody, human IgG4 S228P, lambda, V domains shown)
VH: not shown
VL: SYVLTQPPSVSVAPGQTARITCGGNNEGSESVHWYQQKPGQAPVLVVYDDSDRPSGIPERFSGSNSGNTATLTISRVEAGDEADYYCQVWDGNSDHVVFGGGTKLTVLG
notes: IgG4 backbone
Mean E max (%) [1]: 98%
Mean EC50 [1]: 0.121 nM
koff (human beta-Klotho (KLB)): 4.6e-05 s⁻¹
